{"source": "patent US20050002935A1", "binders": {"B1": {"name": "human B7-H3 VC (expressed on CHO.HLA-DR2 transfectants) (ligand)", "chain": "LEVQVPEDPVVALVGTDATLCCSFSPEPGFSLAQLNLIWQLTDTKQLVHSFAEGQDQGSAYANRTALFPDLLAQGNASLRLQRVRVADEGSFTCFVSIRDFGSAAVSLQVAAPYSKPSMTLEPNKDLRPGDTVTITCSSYRGYPEAEVFWQDGQGVPLTGNVTTSQMANEQGLFDVHSVLRVVLGANGTYSCLVRNPVLQQDAHGSVTITGQPMTFPPEALWVTVGLSVCLIALLVALAFVCWRKIKQSCEEENAGAEDQDGEGEGSKTALQPLKHSDSKEDDGQEIA"}, "B2": {"name": "human B7-H3 VCVC (expressed on CHO.HLA-DR2 transfectants) (ligand)", "chain": "LEVQVPEDPVVALVGTDATLCCSFSPEPGFSLAQLNLIWQLTDTKQLVHSFAEGQDQGSAYANRTALFPDLLAQGNASLRLQRVRVADEGSFTCFVSIRDFGSAAVSLQVAAPYSKPSMTLEPNKDLRPGDTVTITCSSYQGYPEAEVFWQDGQGVPLTGNVTTSQMANEQGLFDVHSILRVVLGANGTYSCLVRNPVLQQDAHSSVTITPQRSPTGAVEVQVPEDPVVALVGTDATLRCSFSPEPGFSLAQLNLIWQLTDTKQLVHSFTEGRDQGSAYANRTALFPDLLAQGNASLRLQRVRVADEGSFTCFVSIRDFGSAAVSLQVAAPYSKPSMTLEPNKDLRPGDTVTITCSSYRGYPEAEVFWQDGQGVPLTGNVTTSQMANEQGLFDVHSVLRVVLGANGTYSCLVRNPVLQQDAHGSVTITGQPMTFPPEALWVTVGLSVCLIALLVALAFVCWRKIKQSCEEENAGAEDQDGEGEGSKTALQPLKHSDSKEDDGQEIA"}}, "target": "B7-H3 receptor on human CD4+ T cells (human)", "assay": "cell-based or functional assay"}
{"binder": "B1", "values": [{"measurement": "GM-CSF level reduced relative to GFP controls (multiplex ELISA, 72 h)", "result": 65, "unit": "%"}, {"measurement": "IFN-γ level reduced relative to GFP controls (multiplex ELISA, 72 h)", "result": 85, "unit": "%"}, {"measurement": "IL-10 level reduced relative to GFP controls (multiplex ELISA, 72 h)", "result": 81, "unit": "%"}, {"measurement": "TNF-α level reduced relative to GFP controls (multiplex ELISA, 72 h)", "result": 69, "unit": "%"}]}
{"binder": "B2", "values": [{"measurement": "GM-CSF level reduced relative to GFP controls (multiplex ELISA, 72 h)", "result": 65, "unit": "%"}, {"measurement": "IFN-γ level reduced relative to GFP controls (multiplex ELISA, 72 h)", "result": 85, "unit": "%"}, {"measurement": "IL-10 level reduced relative to GFP controls (multiplex ELISA, 72 h)", "result": 81, "unit": "%"}, {"measurement": "TNF-α level reduced relative to GFP controls (multiplex ELISA, 72 h)", "result": 69, "unit": "%"}]}
